# Measurements: patent publication US20210330742A1 (RUN X, published 2021)
# B1: p16INK4a (other, UniProt P42771 1-156, looked up)
# chain: MEPAAGSSMEPSADWLATAAARGRVEEVRALLEAGALPNAPNSYGRRPIQVMMMGSARVAELLLLHGAEPNCADPATLTRPVHDAAREGFLDTLVVLHRAGARLDVRDAWGRLPVDLAEELGHRDVARYLRAAAGGTRGSNHARIDAAEGPSDIPD
# Biological target: CDK4 (UniProt P11802 2-303)
# Assay: co-IP and immunoblot, time course after serum stimulation
# Experimental: FIG. 2a is a diagram confirming that E2F1 was combined with RUNX3 by measuring the time-dependent formation of BRD2-RUNX3, E2F1-RUNX3, CDK4-RUNX3, Cyclin D1-RUNX3, HDAC4-RUNX3, p16INK4a-CDK4, p21-CDK4, Cyclin D1-CDK4 and HDAC4-CDK4 complexes by immunoprecipitation (IP) and immunoblotting (IB), and the time-dependent phosphorylation of pRB (at Ser-795) and ERK1/2 by immunoblotting (IB).
# Transient transfection was performed in all cell lines using lipofectamine plus reagent and lipofectamine (Invitrogen). Cell lysates were incubated with an appropriate monoclonal or polyclonal antibody (2 μg of antibody/500 μg of lysate sample) at 4° C. for 3 hours, followed by incubation with protein G-Sepharose beads (Amersham Pharmacia Biotech, Piscataway, NJ, USA). For the detection of endogenous proteins at 4° C. for 1 hour, the lysate was incubated with an appropriate monoclonal or polyclonal antibody (1:1000-1:3000) at 4° C. for 6 to 12 hours, and then protein G-Sepharose beads (Amersham Pharmacia Biotech) were […] at 4° C. for 3 hours. The immune precipitate was […] on an SDS-polyacrylamide gel electrophoresis (SDS-PAGE) gel and transferred to a PVDF membrane (Millipore, Billerica, Mass., USA). […]
# Chain of CDK4 (P11802 2-303 limits assumed): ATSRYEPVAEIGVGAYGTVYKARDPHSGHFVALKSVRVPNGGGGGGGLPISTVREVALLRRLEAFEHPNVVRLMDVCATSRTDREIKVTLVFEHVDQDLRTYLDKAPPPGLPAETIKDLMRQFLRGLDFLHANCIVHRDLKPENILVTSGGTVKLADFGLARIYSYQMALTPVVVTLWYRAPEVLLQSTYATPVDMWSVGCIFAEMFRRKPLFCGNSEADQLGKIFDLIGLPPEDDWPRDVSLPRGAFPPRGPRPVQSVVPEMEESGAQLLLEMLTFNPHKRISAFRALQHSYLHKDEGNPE
binder,measurement,value
B1,binding result,binds
